Experimental data as given in article PMC9332313, “Folding and Binding Mechanisms of the SH2 Domain from Crkl” (Biomolecules, 2022).
Square brackets hold non-standard residues; d marks the D form. Ends that are not written are not given here. * marks the point of attachment. pY = N[C@@H](Cc1ccc(OP(=O)(O)O)cc1)C(=O)O; Dansyl = CN(C)c1cccc2c(S(=O)(=O)*)cccc12

Tests used:
Conditions in all cases: both partners purified
[1] = molecular target: T1, SH2 domain of Crkl protein (residues 1-111), wild type (UniProt P46109 1-111); assay: stopped-flow fluorescence kinetics (FRET); dansyl-Pax112-123 constant at 2 μM mixed with Crkl-SH2 2 to 10 μM (pseudo-first-order, kon); koff by displacement of the preincubated 2 µM complex with excess non-dansylated Pax112-123 (30 μM); 283 K; 50 mM TrisHCl pH 9.0, 0.5 M NaCl
T1 construct: Crkl adaptor protein, SH2 domain, residues 1-111; Subcloned in pET28b+; all experiments were done on the N-terminally His-tagged protein; also called Crkl-SH2; Crkl SH2 domain; source: E. coli BL21 (DE3), purified (HisTrap nickel column, desalting); not shown: His tag, N-terminal, kept
T1 sequence (P46109 1-111): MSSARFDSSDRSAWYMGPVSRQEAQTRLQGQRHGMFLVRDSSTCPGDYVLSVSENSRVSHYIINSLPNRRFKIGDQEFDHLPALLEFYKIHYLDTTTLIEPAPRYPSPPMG

[2] = molecular target: T2, SH2 domain of Crkl protein (residues 1-111), H91A variant (UniProt P46109 1-111, H91A); assay: as above
T2 construct: Crkl adaptor protein, SH2 domain, residues 1-111, His91 replaced by alanine; Site-directed mutant of m1 (QuikChange); source: E. coli BL21 (DE3), purified (HisTrap nickel column, desalting); not shown: His tag, N-terminal, kept
T2 sequence (P46109 1-111 H91A): as the sequence (P46109 1-111) above, with H91A counted along it

[3] = molecular target: T3, SH2 domain of Crkl protein (residues 1-111), H80A variant (UniProt P46109 1-111, H80A); assay: as above
T3 construct: Crkl adaptor protein, SH2 domain, residues 1-111, His80 replaced by alanine; Site-directed mutant of m1 (QuikChange); source: E. coli BL21 (DE3), purified (HisTrap nickel column, desalting); not shown: His tag, N-terminal, kept
T3 sequence (P46109 1-111 H80A): as the sequence (P46109 1-111) above, with H80A counted along it

[4] = molecular target: T4, SH2 domain of Crkl protein (residues 1-111), H33A variant (UniProt P46109 1-111, H33A); assay: as above
T4 construct: Crkl adaptor protein, SH2 domain, residues 1-111, His33 replaced by alanine; Site-directed mutant of m1 (QuikChange); source: E. coli BL21 (DE3), purified (HisTrap nickel column, desalting); not shown: His tag, N-terminal, kept
T4 sequence (P46109 1-111 H33A): as the sequence (P46109 1-111) above, with H33A counted along it

[5] = molecular target: T1, SH2 domain of Crkl protein (residues …); assay: stopped-flow fluorescence kinetics (FRET); dansyl-Pax112-123 constant at 2 μM mixed with Crkl-SH2 2 to 10 μM (pseudo-first-order, kon); koff by displacement of the preincubated 2 µM complex with excess non-dansylated Pax112-123 (30 μM); 283 K; 50 mM BisTRIS pH 6.8, 0.5 M NaCl
[6] = molecular target: T2, SH2 domain of Crkl protein (residues …); assay: as above
[7] = molecular target: T3, SH2 domain of Crkl protein (residues …); assay: as above
[8] = molecular target: T4, SH2 domain of Crkl protein (residues …); assay: as above
[9] = molecular target: T3, SH2 domain of Crkl protein (residues …); assay: stopped-flow fluorescence kinetics (FRET); dansyl-Pax112-123 constant at 2 μM mixed with Crkl-SH2 2 to 10 μM (pseudo-first-order, kon); koff by displacement of the preincubated 2 µM complex with excess non-dansylated Pax112-123 (30 μM); 283 K; 50 mM sodium-acetate pH 5.5, 0.5 M NaCl
[10] = molecular target: T2, SH2 domain of Crkl protein (residues …); assay: stopped-flow fluorescence kinetics (FRET); dansyl-Pax112-123 constant at 2 μM mixed with Crkl-SH2 2 to 10 μM (pseudo-first-order, kon); koff by displacement of the preincubated 2 µM complex with excess non-dansylated Pax112-123 (30 μM); 283 K; 50 mM TrisHCl pH 8.5, 0.5 M NaCl

B1: dansylated Pax_(112–123) peptide (Dans-GEEEHV-pY-SFPNK) (peptide)
peptide: Dansyl-GEEEHV[pY]SFPNK
notes: The dansyl group is the FRET acceptor of Trp14 of the SH2 domain; source: synthetic peptide, bought: GenScript
Kd [1]: 2500 ± 200 nM
koff [1]: 36.1 ± 0.6 s⁻¹
kon [1]: 1.41e+07 ± 900000 M⁻¹ s⁻¹
Kd [2]: 2900 ± 100 nM
koff [2]: 36.4 ± 0.5 s⁻¹
kon [2]: 1.27e+07 ± 500000 M⁻¹ s⁻¹
Kd [3]: 2800 ± 300 nM
koff [3]: 34 ± 2.3 s⁻¹
kon [3]: 1.2e+07 ± 900000 M⁻¹ s⁻¹
Kd [4]: 4.2 ± 0.5 µM
koff [4]: 44.7 ± 4 s⁻¹
kon [4]: 1.06e+07 ± 1e+06 M⁻¹ s⁻¹
Kd [5]: 2400 ± 100 nM
koff [5]: 21.4 ± 0.2 s⁻¹
kon [5]: 8.9e+06 ± 400000 M⁻¹ s⁻¹
Kd [6]: 3000 ± 100 nM
koff [6]: 23.4 ± 0.4 s⁻¹
kon [6]: 7.8e+06 ± 300000 M⁻¹ s⁻¹
Kd [7]: 3.1 ± 0.2 µM
koff [7]: 21.6 ± 0.4 s⁻¹
kon [7]: 7.1e+06 ± 400000 M⁻¹ s⁻¹
Kd [8]: 3.4 ± 0.2 µM
koff [8]: 22.4 ± 0.5 s⁻¹
kon [8]: 6.6e+06 ± 400000 M⁻¹ s⁻¹
Kd [9]: 2500 ± 500 nM
koff [9]: 20 ± 3.7 s⁻¹
kon [9]: 7.9e+06 ± 900000 M⁻¹ s⁻¹
Kd [10]: 2600 ± 100 nM
koff [10]: 34.9 ± 0.5 s⁻¹
kon [10]: 1.36e+07 ± 600000 M⁻¹ s⁻¹
